According to patent US20110243947A1 (Eli Lilly, published 2011):

How the values were obtained:
chimera 3 (m,m,m) = target: T1, chimera 3 (m,m,m) (mouse; human, UniProt P09581 21-292); assay: binding ELISA, coated chimera
T1 construct: range 21-292; not shown: Fc portion of an IgG molecule
Experimental: (§1) Briefly, coat plates with 100 μL of 200 ng/mL human, mouse or chimera 1-7 proteins overnight.

mouse CSF-1R = target: T2, mouse CSF-1R (mouse, UniProt P09581 20-511, limits assumed); assay: binding ELISA, coated receptor protein
T2 construct: also called murine form of the receptor
T2 sequence (looked up): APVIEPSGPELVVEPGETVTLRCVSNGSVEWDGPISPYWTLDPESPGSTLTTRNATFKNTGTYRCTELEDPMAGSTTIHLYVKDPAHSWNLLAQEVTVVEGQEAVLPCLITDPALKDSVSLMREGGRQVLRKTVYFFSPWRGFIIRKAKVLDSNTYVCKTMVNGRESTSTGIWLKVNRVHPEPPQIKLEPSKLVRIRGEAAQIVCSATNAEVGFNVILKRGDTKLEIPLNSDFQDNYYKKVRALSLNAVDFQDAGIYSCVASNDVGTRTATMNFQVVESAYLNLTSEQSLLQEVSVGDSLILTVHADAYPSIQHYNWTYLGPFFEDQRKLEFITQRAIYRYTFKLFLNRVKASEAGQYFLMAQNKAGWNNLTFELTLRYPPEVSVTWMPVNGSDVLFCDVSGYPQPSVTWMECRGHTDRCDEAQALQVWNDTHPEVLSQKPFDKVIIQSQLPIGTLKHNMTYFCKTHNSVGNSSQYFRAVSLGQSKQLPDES
Experimental: as §1

T1 sequence (P09581 other isoform, or with tags, fused parts or gaps mutant): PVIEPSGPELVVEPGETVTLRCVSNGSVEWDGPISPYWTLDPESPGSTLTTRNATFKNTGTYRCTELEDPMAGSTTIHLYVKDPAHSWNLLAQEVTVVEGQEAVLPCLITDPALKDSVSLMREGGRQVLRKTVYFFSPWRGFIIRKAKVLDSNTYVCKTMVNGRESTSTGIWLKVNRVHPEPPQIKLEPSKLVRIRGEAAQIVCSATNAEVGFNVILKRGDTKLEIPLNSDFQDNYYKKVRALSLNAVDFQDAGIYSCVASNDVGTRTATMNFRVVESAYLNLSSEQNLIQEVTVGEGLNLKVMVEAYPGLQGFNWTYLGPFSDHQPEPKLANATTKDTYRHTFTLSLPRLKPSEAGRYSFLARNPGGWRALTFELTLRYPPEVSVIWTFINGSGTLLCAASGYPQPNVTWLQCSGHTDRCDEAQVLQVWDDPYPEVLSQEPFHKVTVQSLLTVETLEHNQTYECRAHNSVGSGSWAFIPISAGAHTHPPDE

B1: Antibody 1 (antibody, human IgG1, kappa, V domains shown)
VH: QDQLVESGGGVVQPGRSLRLSCAASGFTFSSYGMHWVRQAPGEGLEWVAVIWYDGSNKYYADSVKGRFTISRDNSKNTLYLQMNSLRAEDTAVYYCARGDYEVDYGMDVWGQGTTVTVAS
VL: AIQLTQSPSSLSASVGDRVTITCRASQGISNALAWYQQKPGKAPKLLIYDASSLESGVPSRFSGSGSGTDFTLTISSLQPEDFATYYCQQFNSYPWTFGQGTKVEIKR
notes: also called anti-CSF-1R Antibody 1
What does the source list for B1?
binding result (chimera 3 (m,m,m)): no binding (tested: 100 nM); binding result (mouse CSF-1R): no binding (tested: 100 nM)
